Test results: publication PMC6683731 (The Journal of Cell Biology, 2019)
Read-outs that look alike come from different tables or passages of the source.

T1: cohesin subcomplex containing SA2 (residues 80–1060) and Scc1 (residues 281–420) (UniProt Q8N3U4 80-1060; O60216 281-420)
T1 sequence (looked up) 1: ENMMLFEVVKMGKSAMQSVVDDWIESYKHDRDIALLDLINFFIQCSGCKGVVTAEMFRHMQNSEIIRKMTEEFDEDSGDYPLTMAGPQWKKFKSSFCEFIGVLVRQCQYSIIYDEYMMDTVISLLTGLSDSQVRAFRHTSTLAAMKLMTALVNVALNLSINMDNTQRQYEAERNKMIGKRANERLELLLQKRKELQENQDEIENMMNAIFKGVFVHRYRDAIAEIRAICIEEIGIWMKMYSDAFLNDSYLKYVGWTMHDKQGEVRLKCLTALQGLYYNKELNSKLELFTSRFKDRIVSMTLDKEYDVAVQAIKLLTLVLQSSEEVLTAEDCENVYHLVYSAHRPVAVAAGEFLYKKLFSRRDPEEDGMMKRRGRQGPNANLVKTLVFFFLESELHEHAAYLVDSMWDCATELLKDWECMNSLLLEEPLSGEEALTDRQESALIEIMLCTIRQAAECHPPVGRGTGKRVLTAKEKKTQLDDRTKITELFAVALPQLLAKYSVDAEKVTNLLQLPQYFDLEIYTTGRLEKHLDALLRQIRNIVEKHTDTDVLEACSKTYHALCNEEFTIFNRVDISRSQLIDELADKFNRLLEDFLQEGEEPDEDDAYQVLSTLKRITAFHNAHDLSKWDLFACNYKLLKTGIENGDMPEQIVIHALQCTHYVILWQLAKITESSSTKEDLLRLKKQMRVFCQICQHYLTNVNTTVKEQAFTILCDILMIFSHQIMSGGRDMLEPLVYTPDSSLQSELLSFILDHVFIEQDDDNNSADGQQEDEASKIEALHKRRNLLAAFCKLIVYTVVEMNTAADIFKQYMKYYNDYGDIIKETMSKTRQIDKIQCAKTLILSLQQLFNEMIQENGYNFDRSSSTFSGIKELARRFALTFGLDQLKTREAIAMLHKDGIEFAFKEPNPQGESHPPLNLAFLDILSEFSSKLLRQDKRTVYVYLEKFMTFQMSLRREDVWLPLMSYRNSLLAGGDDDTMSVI
T1 sequence (looked up) 2: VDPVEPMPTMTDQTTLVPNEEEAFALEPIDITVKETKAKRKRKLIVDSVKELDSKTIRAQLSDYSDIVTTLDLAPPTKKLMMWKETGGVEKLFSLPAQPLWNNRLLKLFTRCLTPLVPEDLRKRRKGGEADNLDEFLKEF

B1: GST-Sgo1 fragment 115–353 (domain or fragment, human, UniProt Q5FBB7 115-353, looked up)
chain: QEICSSGMDPNSDDSSRNLFVKDLPQIPLEETELPGQGESFQIEDQIPTIPQDTLGVDFDSGEAKSTDNVLPRTVSVRSSLKKHCNSICQFDSLDDFETSHLAGKSFEFERVGFLDPLVNMHIPENVQHNACQWSKDQVNLSPKLIQPGTFTKTKEDILESKSEQTKSKQRDTQERKREEKRKANRRKSKRMSKYKENKSENKKTVPQKKMHKSVSSNDAYNFNLEEGVHLTPFRQKVS
B2: GST-Sgo1 WT (241–387) (domain or fragment, human, UniProt Q5FBB7 241-387, looked up)
chain: VQHNACQWSKDQVNLSPKLIQPGTFTKTKEDILESKSEQTKSKQRDTQERKREEKRKANRRKSKRMSKYKENKSENKKTVPQKKMHKSVSSNDAYNFNLEEGVHLTPFRQKVSNDSNREENNESEVSLCESSGSGDDSDDLYLPTCK
B3: GST-Sgo1 (241–387), Cdk1-phosphorylated (domain or fragment, human, UniProt Q5FBB7 241-387, looked up)
chain: B2 chain
modifications: phospho-Thr346 (Cdk1/cyclin B1; detected with antibody against Sgo1 pT346; how much was phosphorylated could not be measured)
B4: GST-Sgo1 fragment 200–353 (domain or fragment, human, UniProt Q5FBB7 200-353, looked up)
chain: NSICQFDSLDDFETSHLAGKSFEFERVGFLDPLVNMHIPENVQHNACQWSKDQVNLSPKLIQPGTFTKTKEDILESKSEQTKSKQRDTQERKREEKRKANRRKSKRMSKYKENKSENKKTVPQKKMHKSVSSNDAYNFNLEEGVHLTPFRQKVS
B5: GST-Sgo1 ΔSET (241–387 depleted of 281–310) (domain or fragment, human, UniProt Q5FBB7 241-387, looked up)
chain: VQHNACQWSKDQVNLSPKLIQPGTFTKTKEDILESKSEQTENKSENKKTVPQKKMHKSVSSNDAYNFNLEEGVHLTPFRQKVSNDSNREENNESEVSLCESSGSGDDSDDLYLPTCK
B6: GST-Sgo1 fragment 280–353 (domain or fragment, human, UniProt Q5FBB7 280-353, looked up)
chain: TKSKQRDTQERKREEKRKANRRKSKRMSKYKENKSENKKTVPQKKMHKSVSSNDAYNFNLEEGVHLTPFRQKVS
B7: GST-Sgo1 ΔCohesin (241–387 depleted of 313–353) (domain or fragment, human, UniProt Q5FBB7 241-387, looked up)
chain: VQHNACQWSKDQVNLSPKLIQPGTFTKTKEDILESKSEQTKSKQRDTQERKREEKRKANRRKSKRMSKYKENNDSNREENNESEVSLCESSGSGDDSDDLYLPTCK

Tests used:
Test in all cases: pull-down
His6-SET (full length) [1] = target: T2, His6-SET (full length) (human, UniProt Q01105 1-290)
[2] = target: T1, cohesin subcomplex containing SA2 …
[3] = target: T1, cohesin subcomplex containing SA2 …; remark: listed apart in the source
His6-SET (full length) [4] = target: T2, His6-SET (full length); remark: listed apart in the source

T2 sequence (Q01105 whole entry): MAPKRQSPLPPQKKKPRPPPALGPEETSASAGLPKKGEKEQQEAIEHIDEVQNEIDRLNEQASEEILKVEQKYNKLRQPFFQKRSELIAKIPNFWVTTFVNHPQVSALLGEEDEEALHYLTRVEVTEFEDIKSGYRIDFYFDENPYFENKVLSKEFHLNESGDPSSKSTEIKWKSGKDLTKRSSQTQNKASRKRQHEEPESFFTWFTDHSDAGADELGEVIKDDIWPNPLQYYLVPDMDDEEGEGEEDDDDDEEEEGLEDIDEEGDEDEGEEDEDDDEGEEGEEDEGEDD

| Binder | binding result (His6-SET (full length) [1]) | further results |
| --- | --- | --- |
| B1 | binds |  |
| B2 | binds | binding result [2]: binds |
| B3 |  | binding result [3]: binds; binding result (His6-SET (full length) [4]): binds |
| B4 | binds |  |
| B5 |  | binding result [2]: binds |
| B6 | binds |  |
| B7 | binds |  |
